Target: OGG1 (ENZ-253, ProSpec) (UniProt O15527 1-345)
Assay: EMSA
Conditions: protein: commercial, label: Cy5

OGG1 (ENZ-253, ProSpec), sequence (O15527 whole entry): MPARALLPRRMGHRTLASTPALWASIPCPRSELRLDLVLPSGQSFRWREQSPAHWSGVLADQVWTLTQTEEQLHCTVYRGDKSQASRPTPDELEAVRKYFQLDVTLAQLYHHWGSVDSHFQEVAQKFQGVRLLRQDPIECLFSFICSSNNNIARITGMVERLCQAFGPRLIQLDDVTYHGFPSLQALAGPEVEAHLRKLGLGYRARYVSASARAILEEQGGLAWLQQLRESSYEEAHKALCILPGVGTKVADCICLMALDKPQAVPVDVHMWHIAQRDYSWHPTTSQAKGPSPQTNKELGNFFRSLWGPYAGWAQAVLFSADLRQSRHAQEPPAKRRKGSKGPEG

## GGGGCAAAUGCAAACAUGUCCAAAAACAAGGACCAACGCA (structured_RNA, single 8-oxoguanine at the end of GGGG) [8oxo-rG, undenatured]
Predicted secondary structure
  binding result: binds

B1: 8oxo-rG:rC (dsRNA)
RNA 1: GGGGCAAAUGCAAACAUGUCCAAAAACAAGGACCAACGCA
RNA 2: UGCGUUGGUCCUUGUUUUUGGACAUGUUUGCAUUUGCCCC
modifications: single 8-oxoguanine at the end of GGGG
Annealed duplex
  binding result: binds

— article PMC11515973, “8-Oxoguanine DNA Glycosylase1 conceals oxidized guanine in nucleoprotein-associated RNA of respiratory syncytial virus”
